Source: patent publication EP4772534A1 (Astellas Pharma, Inc., dated 2026)

Molecular target: T1, human FcγRI (human, UniProt P12314 16-288, limits assumed)
T1 construct: Construct used in the Biacore assay (source, tag, limits) is not described; also called human FcyRI
Assay: Biacore T200 (SPR)

T1 sequence (P12314 16-288 limits assumed): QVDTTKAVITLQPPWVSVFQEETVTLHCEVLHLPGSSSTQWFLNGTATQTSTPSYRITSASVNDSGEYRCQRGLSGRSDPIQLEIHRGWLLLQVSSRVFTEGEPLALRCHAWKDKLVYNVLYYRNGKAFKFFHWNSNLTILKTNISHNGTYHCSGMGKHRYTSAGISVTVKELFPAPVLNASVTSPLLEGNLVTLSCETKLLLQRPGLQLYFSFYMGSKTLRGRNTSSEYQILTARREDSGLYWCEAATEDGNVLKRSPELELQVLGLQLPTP

Binder	binding result
LYS_E294Del_h1x (antibody, human IgG1, kappa, Expressed in ExpiCHO-S cells without ST6GAL1 co-expression; also called anti-lysozyme antibody having the E294Del amino acid mutation in the human Igγ1 constant region) heavy: QVQLVQSGAEVKKPGASVKVSCKASGYAFSSSWVNWVRQAPGQGLEWMGRIYPGDGDTDYNGKFKGRVTLTADKSTSTAYMELSSLRSEDTAVYYCARRRGYEAVFDYWGQGTLVTVSSASTKGPSVFPLAPSSKSTSGGTAALGCLVKDYFPEPVTVSWNSGALTSGVHTFPAVLQSSGLYSLSSVVTVPSSSLGTQTYICNVNHKPSNTKVDKKVEPKSCDKTHTCPPCPAPELLGGPSVFLFPPKPKDTLMISRTPEVTCVVVDVSHEDPEVKFNWYVDGVEVHNAKTKPREQYNSTYRVVSVLTVLHQDWLNGKEYKCKVSNKALPAPIEKTISKAKGQPREPQVYTLPPSRDELTKNQVSLTCLVKGFYPSDIAVEWESNGQPENNYKTTPPVLDSDGSFFLYSKLTVDKSRWQQGNVFSCSVMHEALHNHYTQKSLSLSPGK light: DIQLTQSPSSLSASVGDRVTITCRASESVDNYDISFLNWFQQKPGKAPKLLIYAASNQGSGVPSRFSGSGSGTDFTLTISSLQPEDFATYYCQQSKEVPYTFGGGTKVEIKRTVAAPSVFIFPPSDEQLKSGTASVVCLLNNFYPREAKVQWKVDNALQSGNSQESVTEQDSKDSTYSLSSTLTLSKADYEKHKVYACEVTHQGLSSPVTKSFNRGEC	binds
LYS_1c3-m1_h10 (antibody, human IgG1, kappa, human Igγ1 constant region, unmodified Fc; Expressed in ExpiCHO-S cells without ST6GAL1 co-expression; also called anti-lysozyme antibody having the human Igγ1 constant region (Fc non-variant)) heavy: not shown light: DIQLTQSPSSLSASVGDRVTITCRASESVDNYDISFLNWFQQKPGKAPKLLIYAASNQGSGVPSRFSGSGSGTDFTLTISSLQPEDFATYYCQQSKEVPYTFGGGTKVEIKRTVAAPSVFIFPPSDEQLKSGTASVVCLLNNFYPREAKVQWKVDNALQSGNSQESVTEQDSKDSTYSLSSTLTLSKADYEKHKVYACEVTHQGLSSPVTKSFNRGEC	binds
LYS_E294Del_LALA_h1x (antibody, human IgG1, kappa, L234A L235A, Expressed in ExpiCHO-S cells without ST6GAL1 co-expression; also called anti-lysozyme antibody having the L234A/L235A/E294Del amino acid mutations in the human Igγ1 constant region) heavy: QVQLVQSGAEVKKPGASVKVSCKASGYAFSSSWVNWVRQAPGQGLEWMGRIYPGDGDTDYNGKFKGRVTLTADKSTSTAYMELSSLRSEDTAVYYCARRRGYEAVFDYWGQGTLVTVSSASTKGPSVFPLAPSSKSTSGGTAALGCLVKDYFPEPVTVSWNSGALTSGVHTFPAVLQSSGLYSLSSVVTVPSSSLGTQTYICNVNHKPSNTKVDKKVEPKSCDKTHTCPPCPAPEAAGGPSVFLFPPKPKDTLMISRTPEVTCVVVDVSHEDPEVKFNWYVDGVEVHNAKTKPREQYNSTYRVVSVLTVLHQDWLNGKEYKCKVSNKALPAPIEKTISKAKGQPREPQVYTLPPSRDELTKNQVSLTCLVKGFYPSDIAVEWESNGQPENNYKTTPPVLDSDGSFFLYSKLTVDKSRWQQGNVFSCSVMHEALHNHYTQKSLSLSPGK light: DIQLTQSPSSLSASVGDRVTITCRASESVDNYDISFLNWFQQKPGKAPKLLIYAASNQGSGVPSRFSGSGSGTDFTLTISSLQPEDFATYYCQQSKEVPYTFGGGTKVEIKRTVAAPSVFIFPPSDEQLKSGTASVVCLLNNFYPREAKVQWKVDNALQSGNSQESVTEQDSKDSTYSLSSTLTLSKADYEKHKVYACEVTHQGLSSPVTKSFNRGEC	no binding
